Results on 63 variants are retold here after paper PMC12102759 (2025).

The labels stand for the following.
B1: SH3BP2 peptide 410-425 (SH3 domain-binding protein 2), 16-mer library wild type / TNKS ANK (TNKS 12 ANK repeats, residues 174-649) (parent complex)
chain 1: LPHLQRSPPDGQSFRS
chain 2: TGVPAVSGALRELLEACRNGDVSRVKRLVDAANVNAKDMAGRKSSPLHFAAGFGRKDVVEHLLQMGANVHARDDGGLIPLHNACSFGHAEVVSLLLCQGADPNARDNWNYTPLHEAAIKGKIDVCIVLLQHGADPNIRNTDGKSALDLADPSAKAVLTGEYKKDELLEAARSGNEEKLMALLTPLNVNCHASDGRKSTPLHLAAGYNRVRIVQLLLQHGADVHAKDKGGLVPLHNACSYGHYEVTELLLKHGACVNAMDLWQFTPLHEAASKNRVEVCSLLLSHGADPTLVNCHGKSAVDMAPTPELRERLTYEFKGHSLLQAAREADLAKVKKTLALEIINFKQPQSHETALHCAVASLHPKRKQVTELLLRKGANVNEKNKDFMTPLHVAAERAHNDVMEVLHKHGAKMNALDTLGQTALHRAALAGHLQTCRLLLSYGSDPSIISLQGFTAAQMGNEAVQQILSESTPIRTSD
B2: AXIN1 peptide 235-250 (Axin-1), 16-mer library wild type / PP2A B56 (PPP2R5A B56 domain, residues 1-486) (parent complex)
chain 1: SGYLPTLNEDEEWKAD
chain 2: not shown

The variants in one assay derive from B1. Nature of the assay: proteomic peptide phage display deep mutational scan (ProP-PD DMS): M13 P8 16-mer library selected against immobilised GST-tagged bait for four days (rounds), NGS of the eluted pools per day and pseudo-replica; bait immobilised on MaxiSorp plates (10 µg), library pre-cleared on GST, 2 h binding at 4 °C, five washes; one round per day, days 1-4; value from days 2 and 3.
Turning to chain 1 GPHLQRSPPDGQSFRS [chain 1 L1G], the screen value was 0.000775 average fractional NGS count over selection days 2 and 3 (reads of this peptide / all reads for the bait, averaged over …. Take chain 1 MPHLQRSPPDGQSFRS [chain 1 L1M]: the screen value was 0.00036 average fractional NGS count over selection days 2 and 3 (reads of this peptide / all reads for the bait, averaged over …. As to chain 1 IPHLQRSPPDGQSFRS [chain 1 L1I], the screen value is 0.00049 average fractional NGS count over selection days 2 and 3 (reads of this peptide / all reads for the bait, averaged over …. chain 1 TPHLQRSPPDGQSFRS [chain 1 L1T]: the screen value is 0.0011 average fractional NGS count over selection days 2 and 3 (reads of this peptide / all reads for the bait, averaged over …. In the case of chain 1 RPHLQRSPPDGQSFRS [chain 1 L1R], the screen value is 0.000257 average fractional NGS count over selection days 2 and 3 (reads of this peptide / all reads for the bait, averaged over …. With chain 1 PPHLQRSPPDGQSFRS [chain 1 L1P], the screen value was 0.000357 average fractional NGS count over selection days 2 and 3 (reads of this peptide / all reads for the bait, averaged over …. Take chain 1 LPHLPRSPPDGQSFRS [chain 1 Q5P]: the screen value was 0.000217 average fractional NGS count over selection days 2 and 3 (reads of this peptide / all reads for the bait, averaged over …. For the variant chain 1 LPHLSRSPPDGQSFRS [chain 1 Q5S], the screen value is 0.000417 average fractional NGS count over selection days 2 and 3 (reads of this peptide / all reads for the bait, averaged over …. Still for that read-out and setting: then chain 1 LPHLERSPPDGQSFRS [chain 1 Q5E], with 0.000543 average fractional NGS count over selection days 2 and 3 (reads of this peptide / all reads for the bait, averaged over …; and chain 1 LPHLDRSPPDGQSFRS [chain 1 Q5D], with 0.00109 average fractional NGS count over selection days 2 and 3 (reads of this peptide / all reads for the bait, averaged over …. For the variant chain 1 LPHLVRSPPDGQSFRS [chain 1 Q5V], the screen value was 0.001 average fractional NGS count over selection days 2 and 3 (reads of this peptide / all reads for the bait, averaged over …. As for chain 1 LPHLKRSPPDGQSFRS [chain 1 Q5K], the screen value is 0.0003 average fractional NGS count over selection days 2 and 3 (reads of this peptide / all reads for the bait, averaged over ….

Variants of B2 are the subject of the next assay. The description is as above.
As to chain 1 W13M, the screen value was 0.000138 average fractional NGS count over selection days 2 and 3 (reads of this peptide / all reads for the bait, averaged over ….

As for chain 1 W13L, the screen value was 0.000454 average fractional NGS count over selection days 2 and 3 (reads of this peptide / all reads for the bait, averaged over …. The same measure, in the same setting: the value for chain 1 W13Y was 0.000277 average fractional NGS count over selection days 2 and 3 (reads of this peptide / all reads for the bait, averaged over ….

In the case of chain 1 N8P, the screen value is 0.000473 average fractional NGS count over selection days 2 and 3 (reads of this peptide / all reads for the bait, averaged over …. Regarding chain 1 N8S, the screen value is 0.000146 average fractional NGS count over selection days 2 and 3 (reads of this peptide / all reads for the bait, averaged over ….

For chain 1 N8E, the screen value was 0.000839 average fractional NGS count over selection days 2 and 3 (reads of this peptide / all reads for the bait, averaged over …. Regarding chain 1 N8K, the screen value is 0.000298 average fractional NGS count over selection days 2 and 3 (reads of this peptide / all reads for the bait, averaged over ….

Turning to chain 1 N8A, the screen value was 0.000156 average fractional NGS count over selection days 2 and 3 (reads of this peptide / all reads for the bait, averaged over ….

In the case of chain 1 N8R, the screen value was 0.000829 average fractional NGS count over selection days 2 and 3 (reads of this peptide / all reads for the bait, averaged over …. On the same count and under the same terms, the value for chain 1 N8F was 0.000687 average fractional NGS count over selection days 2 and 3 (reads of this peptide / all reads for the bait, averaged over …; that for chain 1 A15T was 0.000294 average fractional NGS count over selection days 2 and 3 (reads of this peptide / all reads for the bait, averaged over …. Turning to chain 1 A15G, the screen value was 0.000885 average fractional NGS count over selection days 2 and 3 (reads of this peptide / all reads for the bait, averaged over ….

Take chain 1 A15Y: the screen value is 0.000791 average fractional NGS count over selection days 2 and 3 (reads of this peptide / all reads for the bait, averaged over …. With chain 1 A15P, the screen value is 0.00074 average fractional NGS count over selection days 2 and 3 (reads of this peptide / all reads for the bait, averaged over …. Regarding chain 1 E11V, the screen value is 0.000234 average fractional NGS count over selection days 2 and 3 (reads of this peptide / all reads for the bait, averaged over …. chain 1 E11Y: the screen value was 0.000271 average fractional NGS count over selection days 2 and 3 (reads of this peptide / all reads for the bait, averaged over …. Turning to chain 1 E11S, the screen value is 0.000584 average fractional NGS count over selection days 2 and 3 (reads of this peptide / all reads for the bait, averaged over …. On to chain 1 E11Q, for which the screen value was 0.00516 average fractional NGS count over selection days 2 and 3 (reads of this peptide / all reads for the bait, averaged over …. On to chain 1 E11K, for which the screen value is 0.000202 average fractional NGS count over selection days 2 and 3 (reads of this peptide / all reads for the bait, averaged over ….

Consider chain 1 E11F, for which the screen value is 0.00161 average fractional NGS count over selection days 2 and 3 (reads of this peptide / all reads for the bait, averaged over …. As for chain 1 L7I, the screen value was 0.000349 average fractional NGS count over selection days 2 and 3 (reads of this peptide / all reads for the bait, averaged over ….

For the variant chain 1 D10M, the screen value was 0.00104 average fractional NGS count over selection days 2 and 3 (reads of this peptide / all reads for the bait, averaged over ….

With chain 1 D10L, the screen value is 0.000595 average fractional NGS count over selection days 2 and 3 (reads of this peptide / all reads for the bait, averaged over ….

For the variant chain 1 D10V, the screen value is 0.00335 average fractional NGS count over selection days 2 and 3 (reads of this peptide / all reads for the bait, averaged over …. Take chain 1 D10T: the screen value was 0.000731 average fractional NGS count over selection days 2 and 3 (reads of this peptide / all reads for the bait, averaged over …. Regarding chain 1 E12Q, the screen value was 0.000677 average fractional NGS count over selection days 2 and 3 (reads of this peptide / all reads for the bait, averaged over …. Take chain 1 E12P: the screen value was 0.000257 average fractional NGS count over selection days 2 and 3 (reads of this peptide / all reads for the bait, averaged over …. In the case of chain 1 E12A, the screen value was 0.000112 average fractional NGS count over selection days 2 and 3 (reads of this peptide / all reads for the bait, averaged over …. Turning to chain 1 E12L, the screen value is 0.00045 average fractional NGS count over selection days 2 and 3 (reads of this peptide / all reads for the bait, averaged over …. Turning to chain 1 T6A, the screen value is 0.000414 average fractional NGS count over selection days 2 and 3 (reads of this peptide / all reads for the bait, averaged over …. As to chain 1 T6V, the screen value is 0.00125 average fractional NGS count over selection days 2 and 3 (reads of this peptide / all reads for the bait, averaged over ….

As for chain 1 K14G, the screen value is 0.00056 average fractional NGS count over selection days 2 and 3 (reads of this peptide / all reads for the bait, averaged over …. Consider chain 1 K14D, for which the screen value is 0.000812 average fractional NGS count over selection days 2 and 3 (reads of this peptide / all reads for the bait, averaged over ….

As to chain 1 K14P, the screen value is 0.000647 average fractional NGS count over selection days 2 and 3 (reads of this peptide / all reads for the bait, averaged over …. On to chain 1 K14N, for which the screen value was 0.000231 average fractional NGS count over selection days 2 and 3 (reads of this peptide / all reads for the bait, averaged over …. Take chain 1 K14W: the screen value was 0.00219 average fractional NGS count over selection days 2 and 3 (reads of this peptide / all reads for the bait, averaged over …. For chain 1 D16M, the screen value was 0.00821 average fractional NGS count over selection days 2 and 3 (reads of this peptide / all reads for the bait, averaged over …. For the variant chain 1 D16V, the screen value is 0.00077 average fractional NGS count over selection days 2 and 3 (reads of this peptide / all reads for the bait, averaged over …. For chain 1 D16E, the screen value is 0.000288 average fractional NGS count over selection days 2 and 3 (reads of this peptide / all reads for the bait, averaged over …. For the variant chain 1 D16P, the screen value was 0.000234 average fractional NGS count over selection days 2 and 3 (reads of this peptide / all reads for the bait, averaged over …. With chain 1 D16N, the screen value was 0.000396 average fractional NGS count over selection days 2 and 3 (reads of this peptide / all reads for the bait, averaged over …. For the variant chain 1 D16G, the screen value is 0.000202 average fractional NGS count over selection days 2 and 3 (reads of this peptide / all reads for the bait, averaged over …. Still for that read-out and setting: the value for chain 1 Y3S was 0.000173 average fractional NGS count over selection days 2 and 3 (reads of this peptide / all reads for the bait, averaged over …; that for chain 1 Y3V was 0.00041 average fractional NGS count over selection days 2 and 3 (reads of this peptide / all reads for the bait, averaged over …; that for chain 1 P5A was 0.00054 average fractional NGS count over selection days 2 and 3 (reads of this peptide / all reads for the bait, averaged over …. chain 1 P5Y: the screen value was 0.000222 average fractional NGS count over selection days 2 and 3 (reads of this peptide / all reads for the bait, averaged over …. Turning to chain 1 G2D, the screen value was 0.000338 average fractional NGS count over selection days 2 and 3 (reads of this peptide / all reads for the bait, averaged over ….

For the variant chain 1 G2H, the screen value was 0.000834 average fractional NGS count over selection days 2 and 3 (reads of this peptide / all reads for the bait, averaged over …. Turning to chain 1 G2W, the screen value was 0.00074 average fractional NGS count over selection days 2 and 3 (reads of this peptide / all reads for the bait, averaged over ….

Consider chain 1 G2S, for which the screen value was 0.000675 average fractional NGS count over selection days 2 and 3 (reads of this peptide / all reads for the bait, averaged over …. With chain 1 G2L, the screen value is 0.000458 average fractional NGS count over selection days 2 and 3 (reads of this peptide / all reads for the bait, averaged over ….
